Counter-ions that a name gives are not always drawn. Starred links: 1 amine or outer side, 2 acyl side, 3 side chain; linkers in the order of their positions; H or OH if unused. Positions of bridges follow the written chain, without caps; N, C: chain ends. Non-standard residues stand in square brackets, D forms with d. Residues, ends and D or L forms follow the SMILES beside them. Chains are numbered I, II in the order given. *: point of attachment. TATA = O=C(CC[*:1])N1CN(C(=O)CC[*:2])CN(C(=O)CC[*:3])C1; Dolaproine = CO[C@@H]([C@@H]1CCCN1)[C@@H](C)C(=O)O; Dil = CC[C@H](C)[C@H](NC)[C@@H](CC(=O)O)OC; X2 = O=C(CCCC(=O)[*:2])NCCC(=O)[*:1]; PABC = O=C(OCc1ccc(N[*:1])cc1)[*:2]; X1 = C[C@@H](N*)[C@@H](O)c1ccccc1; Hyp = O=C(O)[C@@H]1C[C@@H](O)CN1; hArg = N=C(N)NCCCC[C@H](N)C(=O)O; Cit = NC(=O)NCCC[C@H](N)C(=O)O; Pen = CC(C)(S)[C@H](N)C(=O)O; NMeV = CN[C@H](C(=O)O)C(C)C; Sar = CNCC(=O)O
Tests used:
Stability in plasma [1] = assay type: in vitro ADME, Cynomolgus macaques; details: Cynomolgus macaque plasma, 2 μM, 37° C., up to 240 min
Procedure: (§1) To test the stability of the compounds of the present invention in plasma from rats, Cynomolgus macaques, and humans.
(§2) The corresponding incubation plates, including T0, T10, T30, T60, T120, and T240 incubation plates, were added with a 2 μL working solution of the compound to be tested (100 μM). Three parallel wells were prepared for each sample. Then, 98 μL of blank plasma from SD rats, Cynomolgus macaques, and humans was added to the corresponding incubation plates to which the working solution had been added. All samples were incubated in a 37° C. water bath. […] At the end of each incubation time point, the corresponding incubation plate was removed, added with stop buffer, precipitated, and centrifuged for 20 minutes. Then, 150 μL of the supernatant was analyzed by the LC-MS/MS method. The concentration of the compound to be tested in the sample was semi-quantitatively determined by the liquid chromatography-tandem mass spectrometry (LC-MS/MS) method.

[2] = Pharmacokinetic analysis in rat plasma at different doses (6.2); assay type: in vivo, SD rats; details: rat, in vivo, male SD rats
Procedure: (§3) Experimental purpose: To test the pharmacokinetics of the compounds of the present invention in SD rats.
(§4) 6.2 The pharmacokinetic characteristics of the compound after intravenous injection and oral administration were tested in rats according to a standard protocol. The compound to be tested was formulated into a clear solution using 50 mM acetate buffer (pH=5) in 10% sucrose as a vehicle. Three male SD rats were given a single intravenous injection of 2.5 mg/kg, 3.75 mg/kg, or 5 mg/kg of the compound to be tested. Whole blood was collected at time points of 0.083, 0.25, 0.5, 1, 4, and 24 hours after administration to get plasma. The concentration of the compound to be tested and the concentration of its potential metabolite MMAE were analyzed by the LC-MS/MS method, and the pharmacokinetic parameters were calculated.

Stability in plasma [3] = assay type: in vitro ADME, Humans; details: human plasma, 2 μM, 37° C., up to 240 min
Procedure: as §1, §2

[4] = In vivo pharmacokinetic analysis in mice; parameters: species or system CD-1 mice; details: mouse, in vivo, CD-1 mice, single IV 2 mg/kg, plasma
Procedure: To test the pharmacokinetics of the compounds of the present invention in CD-1 mice
The pharmacokinetic characteristics of the compound after intravenous injection and oral administration were tested in CD-1 mice according to a standard protocol. The compound of the present invention was formulated into a clear solution using 50 mM acetate buffer (pH=5) in 10% sucrose as a vehicle. Two mice were given a single intravenous injection of 2 mg/kg of the compound to be tested. Whole blood was collected at time points of 0.083, 0.25, 0.5, 1, 2, 4, 8, and 24 hours after administration to get plasma. The concentration of the compound to be tested and the concentration of its potential metabolite MMAE were analyzed by the LC-MS/MS method, and the pharmacokinetic parameters, such as maximal concentration (Cmax), clearance (Cl), half-life (T1/2), […] (Vdss), and area under the concentration-time curve (AUC0-last), were calculated by Phoenix WinNonlin software.

[5] = Pharmacokinetic analysis in rat plasma (6.1, 2 mg/kg); assay type: in vivo, SD rats; details: rat, in vivo, SD rats, single IV 2 mg/kg, plasma
Procedure: as §3
as §4, with “6.1” for “6.2”, “Two” for “Three male”, “2” for “2.5 mg/kg, 3.75 mg/kg, or 5”, “1, 2,” for “1,”, “4, 8,” for “4,”, “calculated by Phoenix WinNonlin software.” for “calculated.”

[6] = Stability incubated in human plasma for 72 hours; assay type: in vitro ADME, Humans
Procedure: as §2
The experimental results obtained using the above method but extending the incubation time of the compound to be tested with human plasma to 72 hours are shown in Table 22.

Stability in whole blood = assay type: in vitro ADME, SD rats; details: SD rat whole blood, 2 μM, 37° C.
Procedure: To test the stability of the compounds of the present invention in whole blood from SD rats and Cynomolgus macaques.
The corresponding incubation plates, including T0, T10, T30, T60, T120, and T240 incubation plates, were added with a 2 μL working solution of the compound to be tested (100 μM). Three parallel wells were prepared for each sample. Then, 98 μL of blank whole blood from SD rats and Cynomolgus macaques was added to the corresponding incubation plates to which the working solution had been added. All samples were incubated in a 37° C. water bath. […] At the end of each incubation time point, the corresponding incubation plate was removed, added with stop buffer, precipitated, and centrifuged for 20 minutes. Then, 100 μL of the supernatant was diluted with 300 μL of ultrapure water, mixed uniformly, and then analyzed by the LC-MS/MS method. The concentration of the compound to be tested in the sample was semi-quantitatively determined by the liquid chromatography-tandem mass spectrometry (LC-MS/MS) method.

SMILES: CC[C@H](C)[C@@H]([C@@H](CC(=O)N1CCC[C@H]1[C@H](OC)[C@@H](C)C(=O)N[C@H](C)[C@@H](O)c1ccccc1)OC)N(C)C(=O)[C@@H](NC(=O)[C@H](C(C)C)N(C)C(=O)OCc1ccc(NC(=O)[C@H](CCCNC(N)=O)NC(=O)[C@@H](NC(=O)CCCC(=O)NCCC(=O)N(C)CC(=O)N(C)CC(=O)N(C)CC(=O)N(C)CC(=O)N(C)CC(=O)N(C)CC(=O)N(C)CC(=O)N(C)CC(=O)N(C)CC(=O)N(C)CC(=O)N[C@H]2CCCCNC(=O)C[C@@H](C(=O)N[C@H]3CSCCC(=O)N4CN5CN(C4)C(=O)CCSC(C)(C)[C@@H](C(N)=O)NC(=O)[C@H](CCCCNC(=N)N)NC(=O)[C@H](Cc4c[nH]c6ccccc46)NC(=O)[C@@H](CC(=O)O)NC(=O)[C@@H]4CCCN4C(=O)[C@H](Cc4c[nH]cn4)NC(=O)[C@H](CC(C)C)NC(=O)[C@H](CSCCC5=O)NC(=O)[C@H](CC(C)C)NC(=O)[C@@H]4CCCN4C(=O)[C@H](CC(N)=O)NC(=O)[C@H](C(C)C)NC(=O)[C@H](CC(C)C)NC(=O)[C@@H]4C[C@@H](O)CN4C3=O)NC(=O)[C@H](CCCCNC(=N)N)NC2=O)C(C)C)cc1)C(C)C [Acetate salt of PDC_8] (I: [Sar][Sar][Sar][Sar][Sar][Sar][Sar][Sar][Sar][Sar]K[hArg]DC[Hyp]LVNPLCLHP[dD]W[hArg][Pen]-NH2 / II: V[Cit][PABC][NMeV]V[Dil][Dolaproine]-X1; lactam I:11-I:13; linker I:14-I:21-I:28 via TATA; linker I:N-II:N via X2)
- half-life (Stability in plasma [1]): > 9.63 h
- AUC(0-t) ([2]; single IV 2.5 mg/kg): 0.765 µM·h
- Cmax ([2]; single IV 2.5 mg/kg): 1960 nM
- AUC(0-t) ([2]; single IV 3.75 mg/kg): 3.09 µM·h
- Cmax ([2]; single IV 3.75 mg/kg): 2750 nM
- AUC(0-t) ([2]; single IV 5 mg/kg): 5.65 µM·h
- Cmax ([2]; single IV 5 mg/kg): 4590 nM
- half-life (Stability in plasma [3]): > 9.63 h
- AUC(0-t) [4]: 0.56 µM·h
- C0 [4]: 2640 nM
- clearance [4]: 13 mL/min/kg
- half-life [4]: 0.2 h
- Vd ([4]; read-out: Vdss): 0.19 L/kg
- AUC(0-t) [5]: 0.518 µM·h
- C0 [5]: 1670 nM
- clearance [5]: 14.4 mL/min/kg
- half-life [5]: 0.29 h
- Vd ([5]; read-out: Vdss): 0.28 L/kg
- MMAE generation % ([6]; test time point 0): 0.1%
- PDC_8 remaining % ([6]; test time point 0): 100.0%
- MMAE generation % ([6]; test time point 0.5): 0.2%
- remaining at 0.5 h, 2 µM ([6]; test time point 0.5, read-out: PDC_8 remaining %): 96.3%
- MMAE generation % ([6]; test time point 1): 0.5%
- remaining at 1 h, 2 µM ([6]; test time point 1, read-out: PDC_8 remaining %): 103%
- MMAE generation % ([6]; test time point 2): 0.5%
- remaining at 2 h, 2 µM ([6]; test time point 2, read-out: PDC_8 remaining %): 86.6%
- MMAE generation % ([6]; test time point 4): 0.6%
- remaining at 4 h, 2 µM ([6]; test time point 4, read-out: PDC_8 remaining %): 101%
- MMAE generation % ([6]; test time point 24): 0.6%
- remaining at 24 h, 2 µM ([6]; test time point 24, read-out: PDC_8 remaining %): 89.9%
- MMAE generation % ([6]; test time point 48): 0.0%
- remaining at 48 h, 2 µM ([6]; test time point 48, read-out: PDC_8 remaining %): 96%
- MMAE generation % ([6]; test time point 72): 3.2%
- remaining at 72 h, 2 µM ([6]; test time point 72, read-out: PDC_8 remaining %): 78%
- half-life (Stability in whole blood): 9.31 h

Source: patent US20250121076A1, “POLYPEPTIDE DRUG CONJUGATE HAVING NOVEL STRUCTURE AND APPLICATION THEREOF” (MEDSHINE DISCOVERY INC., priority 2021, published 2025)
